Like-named read-outs stand apart in the source and are kept apart here.
Columns and labels:
[1] = target: aryl hydrocarbon receptor nuclear translocator PAS-B E362R, conjugated with Alexa-Fluor 488; assay: MST
[2] = target: aryl hydrocarbon receptor nuclear translocator PAS-B E362R; assay: ITC
[3] = target: aryl hydrocarbon receptor nuclear translocator PAS-B E362R, conjugated with Alexa-Fluor 488; assay: MST; remark: listed apart in the source
[4] = target: aryl hydrocarbon receptor nuclear translocator PAS-B E362R, conjugated with Alexa-Fluor 488; assay: MST; remark: listed apart in the source

Kd [1]: 250 nM | Kd [2]: 560 nM | dH [2]: 4.4 kcal/mol | Kd [3]: 820 nM | Kd [4]: 170 nM
Substance: HIF-2α PAS-B R247E (domain or fragment)

From paper PMC4873313
